Measured values from patent publication US20240287172A1 (SCIRHOM, published 2024).
Residue numbers refer to the chain shown, from its start.

T1: hiR2-FL-T519A-T7 (human, UniProt Q6PJF5 1-856)
T1 sequence: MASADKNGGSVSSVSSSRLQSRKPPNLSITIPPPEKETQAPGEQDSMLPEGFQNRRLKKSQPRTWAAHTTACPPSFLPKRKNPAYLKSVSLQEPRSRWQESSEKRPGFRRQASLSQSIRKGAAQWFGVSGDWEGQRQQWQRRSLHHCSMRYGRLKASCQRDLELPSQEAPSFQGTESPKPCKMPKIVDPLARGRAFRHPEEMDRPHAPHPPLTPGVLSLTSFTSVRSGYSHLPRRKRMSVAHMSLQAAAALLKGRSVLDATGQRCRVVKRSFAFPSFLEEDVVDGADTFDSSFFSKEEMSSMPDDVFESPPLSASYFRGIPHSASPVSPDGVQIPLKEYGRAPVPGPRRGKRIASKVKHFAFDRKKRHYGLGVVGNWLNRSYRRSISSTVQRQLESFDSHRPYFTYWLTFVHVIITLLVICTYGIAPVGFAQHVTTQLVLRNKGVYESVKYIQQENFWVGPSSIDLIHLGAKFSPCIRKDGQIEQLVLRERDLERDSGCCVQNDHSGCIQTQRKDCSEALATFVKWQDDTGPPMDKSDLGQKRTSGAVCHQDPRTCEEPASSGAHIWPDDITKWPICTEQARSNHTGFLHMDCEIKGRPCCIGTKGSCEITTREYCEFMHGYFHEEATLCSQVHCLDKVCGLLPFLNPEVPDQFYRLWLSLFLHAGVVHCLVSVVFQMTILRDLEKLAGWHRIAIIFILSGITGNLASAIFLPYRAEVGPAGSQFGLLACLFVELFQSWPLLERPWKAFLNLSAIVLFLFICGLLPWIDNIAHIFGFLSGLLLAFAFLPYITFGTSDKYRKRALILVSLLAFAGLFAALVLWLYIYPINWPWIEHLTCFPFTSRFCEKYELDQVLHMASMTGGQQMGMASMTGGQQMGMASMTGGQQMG

T2: hiR2-FL-T522A-T7 (human, UniProt Q6PJF5 1-856)
T2 sequence: T1 sequence with A519T, T522A

B1: antibody 48 (antibody, V domains shown)
VH: QVQLQQSGTELVRPGTSVKVSCKASGYAFTNYLIEWVKQRPGQGLEWIGVINPGSGFTKYNEKFKGKATLTADKSSSTVYMHLSSLTSEDSAVYFCARGLYRAMDYWGQGTSVTVSS
VL: DIQMTQSPASQSASLGESVTITCLASQTIATWLAWYQQKPGKSPQLLIYGATTLADGVPSRFSGGGSGTKFSFKISSLQAEDFVSYYCQQLYSTPYTFGGGTKLEIK
notes: mouse IgG, kappa light chain; also called clone #48; purified antibody 48
B2: antibody 50 (antibody, V domains shown)
VH: B1 VH with T9A, T16A, T30S, V79A, H82Q
VL: B1 VL with A30G, G50A, T52A, T53S, S85N, L91I
notes: mouse IgG, kappa light chain; also called clone #50; purified antibody 50

Experiments:
hiR2-FL-T519A-T7 = target: T1, hiR2-FL-T519A-T7; experiment: FACS on MEF-DKO cells expressing the variant, 3 µg/ml antibody
Outline: (§1)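 Pelleted cells are resuspended in antibody at 3 μg/ml and kept on ice 1 hour, washed, then incubated with PE goat anti-mouse IgG F(ab′)2 diluted 1:100 on ice for 1 hour protected from light, washed again and analysed by flow cytometry.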

hiR2-FL-T522A-T7 = target: T2, hiR2-FL-T522A-T7; experiment: as above
Outline: as §1

Binder	loss of binding vs wild type (hiR2-FL-T519A-T7)	loss of binding vs wild type (hiR2-FL-T522A-T7)
B1	≥ 60%	≥ 30%
B2	≥ 60%	≥ 30%
